The labels stand for the following.
B1: antibody containing VH3-IgG1-F890 for the heavy chain and L(WT)-CK for the light chain (antibody)
heavy: QVQLQESGPGLVKPSETLSLTCAVSGHSISHDHAWSWVRQPPGEGLEWIGFISYSGITNYNPSLQGRVTISRDNSKNTLYLQMNSLRAEDTAVYYCARSLARTTAMDYWGEGTLVTVSSASTKGPSVFPLAPSSKSTSGGTAALGCLVKDYFPEPVTVSWNSGALTSGVHTFPAVLQSSGLYSLSSVVTVPSSSLGTQTYICNVNHKPSNTKVDKKVEPKSCDKTHTCPPCPAPELLGGPSVFLFPPKPKDTLYISRTPEVTCVVVDVSHEDPEVKFNWYVDGVEVHNAKTKPREEQYNSTYRVVSVLTVLHQDWLNGKEYKCKVSNKALPAPIEKTISKAKGQPREPQVYTLPPSRDELTKNQVSLTCLVKGFYPSDIAVEWESNGQPENNYKTTPPVLDSDGSFFLYSKLTVDKSRWQQGNVFSCSVMHEALHYHVTQKSLSLSP
light: not shown
B2: antibody containing VH3-IgG1-F1315 for the heavy chain and L(WT)-CK for the light chain (antibody)
heavy: QVQLQESGPGLVKPSETLSLTCAVSGHSISHDHAWSWVRQPPGEGLEWIGFISYSGITNYNPSLQGRVTISRDNSKNTLYLQMNSLRAEDTAVYYCARSLARTTAMDYWGEGTLVTVSSASTKGPSVFPLAPSSKSTSGGTAALGCLVKDYFPEPVTVSWNSGALTSGVHTFPAVLQSSGLYSLSSVVTVPSSSLGTQTYICNVNHKPSNTKVDKKVEPKSCDKTHTCPPCPAPELLGKPKVFLFPPKPKDTLYISRTPEVTCVVVDVSHEDPEVKFNWYVDGVEVHNAKTKPREEQYNSTYRVVSVLTVLHQDWLNGKEYKCKVSNKALPAPIEKTISKAKGQPREPQVYTLPPSRDELTKNQVSLTCLVKGFYPSDIAVEWESNGQPENNYKTTPPVLDSDGSFFLYSKLTVDKSRWQQGNVFSCSVMHEALHYHVTQKSLSLSP
light: not shown
B3: antibody containing VH3-IgG1-F1333 for the heavy chain and L(WT)-CK for the light chain (antibody)
heavy: QVQLQESGPGLVKPSETLSLTCAVSGHSISHDHAWSWVRQPPGEGLEWIGFISYSGITNYNPSLQGRVTISRDNSKNTLYLQMNSLRAEDTAVYYCARSLARTTAMDYWGEGTLVTVSSASTKGPSVFPLAPSSKSTSGGTAALGCLVKDYFPEPVTVSWNSGALTSGVHTFPAVLQSSGLYSLSSVVTVPSSSLGTQTYICNVNHKPSNTKVDKKVEPKSCDKTHTCPPCPAPELRRGPKVFLFPPKPKDTLYISRTPEVTCVVVDVSHEDPEVKFNWYVDGVEVHNAKTKPREEQYNSTYRVVSVLTVLHQDWLNGKEYKCKVSNKALPAPIEKTISKAKGQPREPQVYTLPPSRDELTKNQVSLTCLVKGFYPSDIAVEWESNGQPENNYKTTPPVLDSDGSFFLYSKLTVDKSRWQQGNVFSCSVMHEALHYHVTQKSLSLSP
light: not shown
B4: antibody containing VH3-IgG1-F1327 for the heavy chain and L(WT)-CK for the light chain (antibody)
heavy: QVQLQESGPGLVKPSETLSLTCAVSGHSISHDHAWSWVRQPPGEGLEWIGFISYSGITNYNPSLQGRVTISRDNSKNTLYLQMNSLRAEDTAVYYCARSLARTTAMDYWGEGTLVTVSSASTKGPSVFPLAPSSKSTSGGTAALGCLVKDYFPEPVTVSWNSGALTSGVHTFPAVLQSSGLYSLSSVVTVPSSSLGTQTYICNVNHKPSNTKVDKKVEPKSCDKTHTCPPCPAPEAAGGPSVFLFPPKPKDVLYISRTPEVTCVVVDVSHEDPEVKFNWYVDGVEVHNAKTKPREEQYASTYRVVSVLQPLHADWLNGKEYKCKVSNKALPAPIEKTISKAKGQPREPQVYTLPPSRDELTKNQVSLTCLVKGFYPSDIAVEWESNGQPENNYKTTPPVLDSDGSFFLYSKLTVDKSRWQQGNVFSCSVMHEALHYHVTQKSLSLSP
light: not shown
B5: antibody containing VH3-IgG1-F1316 for the heavy chain and L(WT)-CK for the light chain (antibody)
heavy: QVQLQESGPGLVKPSETLSLTCAVSGHSISHDHAWSWVRQPPGEGLEWIGFISYSGITNYNPSLQGRVTISRDNSKNTLYLQMNSLRAEDTAVYYCARSLARTTAMDYWGEGTLVTVSSASTKGPSVFPLAPSSKSTSGGTAALGCLVKDYFPEPVTVSWNSGALTSGVHTFPAVLQSSGLYSLSSVVTVPSSSLGTQTYICNVNHKPSNTKVDKKVEPKSCDKTHTCPPCPAPELLGRPKVFLFPPKPKDTLYISRTPEVTCVVVDVSHEDPEVKFNWYVDGVEVHNAKTKPREEQYNSTYRVVSVLTVLHQDWLNGKEYKCKVSNKALPAPIEKTISKAKGQPREPQVYTLPPSRDELTKNQVSLTCLVKGFYPSDIAVEWESNGQPENNYKTTPPVLDSDGSFFLYSKLTVDKSRWQQGNVFSCSVMHEALHYHVTQKSLSLSP
light: not shown
B6: antibody containing VH3-IgG1-F1318 for the heavy chain and L(WT)-CK for the light chain (antibody)
heavy: QVQLQESGPGLVKPSETLSLTCAVSGHSISHDHAWSWVRQPPGEGLEWIGFISYSGITNYNPSLQGRVTISRDNSKNTLYLQMNSLRAEDTAVYYCARSLARTTAMDYWGEGTLVTVSSASTKGPSVFPLAPSSKSTSGGTAALGCLVKDYFPEPVTVSWNSGALTSGVHTFPAVLQSSGLYSLSSVVTVPSSSLGTQTYICNVNHKPSNTKVDKKVEPKSCDKTHTCPPCPAPELLGGPKVFLFPPKPKDTLYISRTPEVTCVVVDVSHEDPEVKFNWYVDGVEVHNAKTKPREEQYNSTYRVVSVLTVLHQDWLNGKEYKCKVSNKALRAPIEKTISKAKGQPREPQVYTLPPSRDELTKNQVSLTCLVKGFYPSDIAVEWESNGQPENNYKTTPPVLDSDGSFFLYSKLTVDKSRWQQGNVFSCSVMHEALHYHVTQKSLSLSP
light: not shown
B7: antibody containing VH3-IgG1-F1317 for the heavy chain and L(WT)-CK for the light chain (antibody)
heavy: QVQLQESGPGLVKPSETLSLTCAVSGHSISHDHAWSWVRQPPGEGLEWIGFISYSGITNYNPSLQGRVTISRDNSKNTLYLQMNSLRAEDTAVYYCARSLARTTAMDYWGEGTLVTVSSASTKGPSVFPLAPSSKSTSGGTAALGCLVKDYFPEPVTVSWNSGALTSGVHTFPAVLQSSGLYSLSSVVTVPSSSLGTQTYICNVNHKPSNTKVDKKVEPKSCDKTHTCPPCPAPELLGGPKVFLFPPKPKDTLYISRTPEVTCVVVDVSHEDPEVKFNWYVDGVEVHNAKTKPREEQYNSTYRVVSVLTVLHQDWLNGKEYKCKVSNKALKAPIEKTISKAKGQPREPQVYTLPPSRDELTKNQVSLTCLVKGFYPSDIAVEWESNGQPENNYKTTPPVLDSDGSFFLYSKLTVDKSRWQQGNVFSCSVMHEALHYHVTQKSLSLSP
light: not shown
B8: antibody containing VH3-IgG1-F1009 for the heavy chain and L(WT)-CK for the light chain (antibody)
heavy: QVQLQESGPGLVKPSETLSLTCAVSGHSISHDHAWSWVRQPPGEGLEWIGFISYSGITNYNPSLQGRVTISRDNSKNTLYLQMNSLRAEDTAVYYCARSLARTTAMDYWGEGTLVTVSSASTKGPSVFPLAPSSKSTSGGTAALGCLVKDYFPEPVTVSWNSGALTSGVHTFPAVLQSSGLYSLSSVVTVPSSSLGTQTYICNVNHKPSNTKVDKKVEPKSCDKTHTCPPCPAPELRGGPKVFLFPPKPKDVLYISRTPEVTCVVVDVSHEDPEVKFNWYVDGVEVHNAKTKPREEQYNSTYRVVSVLQPLHADWLNGKEYKCKVSNKALPAPIEKTISKAKGQPREPQVYTLPPSRDELTKNQVSLTCLVKGFYPSDIAVEWESNGQPENNYKTTPPVLDSDGSFFLYSKLTVDKSRWQQGNVFSCSVMHEALHYHVTQKSLSLSP
light: not shown
B9: antibody containing VH3-IgG1-F939 for the heavy chain and L(WT)-CK for the light chain (antibody)
heavy: QVQLQESGPGLVKPSETLSLTCAVSGHSISHDHAWSWVRQPPGEGLEWIGFISYSGITNYNPSLQGRVTISRDNSKNTLYLQMNSLRAEDTAVYYCARSLARTTAMDYWGEGTLVTVSSASTKGPSVFPLAPSSKSTSGGTAALGCLVKDYFPEPVTVSWNSGALTSGVHTFPAVLQSSGLYSLSSVVTVPSSSLGTQTYICNVNHKPSNTKVDKKVEPKSCDKTHTCPPCPAPELRGGPKVFLFPPKPKDTLYISRTPEVTCVVVDVSHEDPEVKFNWYVDGVEVHNAKTKPREEQYNSTYRVVSVLTVLHQDWLNGKEYKCKVSNKALPAPIEKTISKAKGQPREPQVYTLPPSRDELTKNQVSLTCLVKGFYPSDIAVEWESNGQPENNYKTTPPVLDSDGSFFLYSKLTVDKSRWQQGNVFSCSVMHEALHYHVTQKSLSLSP
light: not shown
B10: antibody containing VH3-IgG1-F947 for the heavy chain and L(WT)-CK for the light chain (antibody)
heavy: QVQLQESGPGLVKPSETLSLTCAVSGHSISHDHAWSWVRQPPGEGLEWIGFISYSGITNYNPSLQGRVTISRDNSKNTLYLQMNSLRAEDTAVYYCARSLARTTAMDYWGEGTLVTVSSASTKGPSVFPLAPSSKSTSGGTAALGCLVKDYFPEPVTVSWNSGALTSGVHTFPAVLQSSGLYSLSSVVTVPSSSLGTQTYICNVNHKPSNTKVDKKVEPKSCDKTHTCPPCPAPELLGGPSVFLFPPKPKDVLYISRTPEVTCVVVDVSHEDPEVKFNWYVDGVEVHNAKTKPREEQYNSTYRVVSVLQPLHADWLNGKEYKCKVSNKALPAPIEKTISKAKGQPREPQVYTLPPSRDELTKNQVSLTCLVKGFYPSDIAVEWESNGQPENNYKTTPPVLDSDGSFFLYSKLTVDKSRWQQGNVFSCSVMHEALHYHVTQKSLSLSP
light: not shown
B11: antibody containing VH3-IgG1-F1325 for the heavy chain and L(WT)-CK for the light chain (antibody)
heavy: QVQLQESGPGLVKPSETLSLTCAVSGHSISHDHAWSWVRQPPGEGLEWIGFISYSGITNYNPSLQGRVTISRDNSKNTLYLQMNSLRAEDTAVYYCARSLARTTAMDYWGEGTLVTVSSASTKGPSVFPLAPSSKSTSGGTAALGCLVKDYFPEPVTVSWNSGALTSGVHTFPAVLQSSGLYSLSSVVTVPSSSLGTQTYICNVNHKPSNTKVDKKVEPKSCDKTHTCPPCPAPEAAGGPSVFLFPPKPKDTLYISRTPEVTCVVVDVSHEDPEVKFNWYVDGVEVHNAKTKPREEQYASTYRVVSVLTVLHQDWLNGKEYKCKVSNKALPAPIEKTISKAKGQPREPQVYTLPPSRDELTKNQVSLTCLVKGFYPSDIAVEWESNGQPENNYKTTPPVLDSDGSFFLYSKLTVDKSRWQQGNVFSCSVMHEALHYHVTQKSLSLSP
light: not shown
B12: antibody containing VH3-IgG1-F938 for the heavy chain and L(WT)-CK for the light chain (antibody)
heavy: QVQLQESGPGLVKPSETLSLTCAVSGHSISHDHAWSWVRQPPGEGLEWIGFISYSGITNYNPSLQGRVTISRDNSKNTLYLQMNSLRAEDTAVYYCARSLARTTAMDYWGEGTLVTVSSASTKGPSVFPLAPSSKSTSGGTAALGCLVKDYFPEPVTVSWNSGALTSGVHTFPAVLQSSGLYSLSSVVTVPSSSLGTQTYICNVNHKPSNTKVDKKVEPKSCDKTHTCPPCPAPELKGGPKVFLFPPKPKDTLYISRTPEVTCVVVDVSHEDPEVKFNWYVDGVEVHNAKTKPREEQYNSTYRVVSVLTVLHQDWLNGKEYKCKVSNKALPAPIEKTISKAKGQPREPQVYTLPPSRDELTKNQVSLTCLVKGFYPSDIAVEWESNGQPENNYKTTPPVLDSDGSFFLYSKLTVDKSRWQQGNVFSCSVMHEALHYHVTQKSLSLSP
light: not shown

The target of the assay is T1, human FcγRIIIa(F) (human, UniProt P08637 17-208, limits assumed).
T1 construct: also called hFcgRIIIa(F); allotype F158
T1 sequence (P08637 other isoform, or with tags, fused parts or gaps limits assumed): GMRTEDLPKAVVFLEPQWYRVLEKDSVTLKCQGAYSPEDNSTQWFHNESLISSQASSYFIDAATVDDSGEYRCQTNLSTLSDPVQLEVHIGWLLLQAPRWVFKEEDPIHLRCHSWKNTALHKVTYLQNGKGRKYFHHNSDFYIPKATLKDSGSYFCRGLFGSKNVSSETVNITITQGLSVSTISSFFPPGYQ
In words: SPR (Biacore), antibody captured on Protein L, human FcgR as analyte, pH 7.4, 25 C; amount normalised to captured antibody. (In general: In SPR one partner is held on a chip, and binding of the other changes the refractive index at the surface.)
Method: Binding activity between the antibodies and human FcγRIa, FcγRIIa(H), FcγRIIa(R), FcγRIIb and FcγRIIIa(F) (hereinafter referred to as human FcγRs) was evaluated using the Biacore T100 or T200 (GE Healthcare). The antibodies being tested were captured by Protein L (ACTIGEN) that was immobilized in suitable amounts on the CM4 Sensor Chip (GE Healthcare) by amine coupling. Next, the diluted human FcγRs and a running buffer used as a blank were injected to allow interaction with the antibodies captured on the sensor chip. A buffer consisting of 20 mmol/L ACES, 150 mmol/L NaCl and 0.05% (w/v) Tween 20 (pH 7.4) was used for the running buffer, and this buffer was also used to dilute the human FcγRs. 10 mmol/L glycine-HCl (pH 1.5) was used to regenerate the sensor chip. All measurements were carried out at 25° C.
Binding activity to human FcγRs can be represented by the relative binding activity to human FcγRs. Antibody was captured by Protein L, and the amount of change in a sensorgram before and after the antibody was captured was defined as X1. Next, human FcγRs were allowed to interact with the antibody, and the value obtained by subtracting binding activity of human FcγRs represented as the amount of change in a sensorgram before and after allowing the running buffer to interact with antibody captured by Protein L (ΔA2) from the value obtained by multiplying by 1500 the value obtained by dividing the binding activity of human FcγRs represented as the amount of change in a sensorgram before and after that interaction (ΔA1) by the captured amount (X) of each antibody, was divided by the captured amount of each antibody (X) followed by multiplying by 1500 to obtain the binding activity of the human FcγRs (Y) (Equation 2).
For B1, the “BINDING AMOUNT (RU)” value was determined as 63.5 RU.
Regarding B2, the “BINDING AMOUNT (RU)” value was -0.33 RU.
Consider B3, for which the “BINDING AMOUNT (RU)” value is -1.01 RU.
Take B4: the “BINDING AMOUNT (RU)” value was -1.85 RU.
Turning to B5, the “BINDING AMOUNT (RU)” value was -0.26 RU.
Take B6: the “BINDING AMOUNT (RU)” value was -1.03 RU.
Then B7, with -0.94 RU; and B8, with -0.68 RU; and B9, with 0.51 RU.
On to B10, for which the “BINDING AMOUNT (RU)” value stood at 105 RU.
Then B11, with -0.54 RU; and B12, with -0.34 RU.

The values above are taken from patent publication US20140105889A1 (published 2014).
